Experimental data taken from patent US20240216513A1, “FATTY ACID-BIFUNCTIONAL DEGRADER CONJUGATES AND THEIR METHODS OF USE” (Novartis AG, priority 2021, published 2024).
Read-outs that look alike come from different tables or passages of the source.

Legend:
[1] = BTK FAC plasma stability assay, PBS buffer arm; assay type: physicochemical; details: for Plasma stability (h) PBS: incubation to 24 h
Summary of the method: (§1)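 Stability in PBS buffer or EDTA-treated plasma is followed over 24 h at 38 °C with shaking. Protein precipitation with acetonitrile (glyburide 0.2 µM as internal standard) stops each timepoint, and LC-MS/MS gives analyte-to-standard area ratios.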

[2] = BTK FAC plasma stability assay, mouse plasma; assay type: in vitro ADME; details: for Plasma stability (h) mouse: incubation to 24 h
Summary of the method: as §1

[3] = BTK FAC plasma stability assay, rat plasma; assay type: in vitro ADME; details: for Plasma stability (h) rat: incubation to 24 h
Summary of the method: as §1

[4] = BTK FAC plasma stability assay, dog plasma; assay type: in vitro ADME
[5] = BTK FAC plasma stability assay, cyno plasma; assay type: in vitro ADME, cynomolgus monkey
BTK C481S = biological target: T1, BTK C481S (Homo sapiens, UniProt Q06187, C481S); experiment: PD screen in TMD8 BTK C481S mutant tumor-bearing mice, BTK levels and compound concentrations in blood and tumor; assay type: in vivo, mouse; details: i.v.; 50 umol/kg
T1 construct: endogenous in cells; host or cells: TMD8 BTK C481S mutant tumour xenografts in mice
Description: All animal studies were conducted in accordance with ethics and procedures covered by permit nos. BS-1975 issued by the Kantonales Veterinäramt Basel-Stadt and in strict adherence to guidelines of the Eidgenössisches Tierschutzgesetz and the Eidgenössische Tierschutzverordnung, Switzerland. All animals had access to food and water ad libitum and were identified with transponders. They were housed in a specific pathogen-free facility with a 12-h light/12-h dark cycle. For PD screen experiments in TMD8 BTK C481S mutant tumor-bearing mice, FAC was injected once. Animals were randomized into groups of 2 and tissue samples collected at day 0, 4, 7 and in some studies day 10 as well. Blood samples were collected and tumors were excised, weighed, frozen in liquid nitrogen and cryogenic dry pulverized with the CryoPrep™ system (model CP-02, Covaris). Concentrations of compounds in blood and tumors were determined by UPLC/MS-MS and BTK levels were analyzed by Meso Scale Discovery.

[6] = In vivo pharmacokinetic study in Beagle dogs (i.v. or s.c.), FAC and payload in blood; parameters: species or system dog
Description: (§2) Pharmacokinetic studies were conducted in male C57/B16 mice; male Sprague-Dawley rats; male Beagle dogs and male Cynomolgus monkeys. 3 animals per group were used for each study performed. All studies were performed in accordance with local animal welfare regulations.
Between 1 and 10 µM/kg FAC was administered either intravenously or subcutaneously as a solution in 10 mM PBS with NaOH (dose volume 0.4 mL/kg in dog and monkey s.c. and 0.2 mL/kg i.v. in monkey). Serial 100 µL blood samples were collected via venipuncture of the cephalic vein at defined timepoints to 336 hours (into EDTA coated tubes).
(§3) Each blood sample was precipitated with acetonitrile containing internal standard; samples were mixed and centrifuged (20 minutes 4000 RPM at 4° C.). Supernatant was transferred to a microwell plate and evaporated under nitrogen at 60° C. Residue was resuspended in acetonitrile/water (7:3 v/v); plate sealed and transferred to an ultrasonic bath for 3 minutes, prior to analysis. Quantification was performed by LC-MS/MS (SciexAP16500 Q-trap, Shimadzu Nexera X2) using a Phenomenex Polar RP analytical column (2.5 μm particle size; 50×2 mm). The mobile phase consisted of solvent A (0.1% formic acid in water) and solvent B (0.1% formic acid in acetonitrile). The fatty acid conjugate and API were detected using multiple reaction monitoring.
(§4) Data analysis and calculation of non-compartmental pharmacokinetic parameters was
(§5) performed using an in-house analysis. Following intravenous administration whole blood clearance was calculated by the dose administered divided by AUC0-inf. Volume of distribution at steady state was calculated as MRT*CL, where MRT is the mean residence time, calculated by AUMC0-inf/AUC0-inf. The half-life (t1/2) of the terminal elimination phase was calculated by 0.693/λ. For both intravenous and subcutaneous administration, the systemic exposures were determined by calculating the area under the blood concentration time curve (AUC) from time zero to the last observed quantifiable concentration (AUClast) by using the linear trapezoidal method and normalised to dose. Extrapolated AUC (AUC0-inf) is calculated by addition of AUClast and AUCtlast-inf; where AUCtlast-inf is calculated based on Clast/λ. The slope of the terminal elimination phase was estimated by linear regression of the terminal data points (minimum 3 points) from a natural log concentration versus time plot of the data. Bioavailability was calculated as the dose normalized ratio of […] AUCinf to intravenous AUCinf (100*[SC AUCinf/SC dose]/[IV AUCinf/IV dose]). Following subcutaneous administration Cmax is calculated as the average maximum observed peak concentration and Tmax is the time associated with the determined Cmax.

[7] = In vivo pharmacokinetic study in mice (i.v. or s.c.), FAC and payload in blood; parameters: species or system mouse; details: for AUC: male, C57/B16, whole blood
Description: as §2
[…] Serial 30 µL blood samples were collected via venipuncture of the tail vein in mouse, and via the cannulated jugular vein in rats at defined timepoints to 216 hours (into EDTA coated tubes).
as §3, §4, §5
For PK experiments, non-tumor bearing mice or rats were treated once (10 mL/kg) with a compound either i.v. or s.c. Serial blood samplings from the tail vein (5-20 μl) were collected during the course of the experiment. For PK/PD experiments in tumor-bearing mice, compound was administered once (10 mL/kg) either i.v. or s.c. Animals were randomized into groups of n=3 and tissue samples were collected at several time points. At the times indicated, animals were anaesthetized by exposure to 2-3% v/v isoflurane in medical oxygen. They were sacrificed without recovering from anesthetic after blood sampling into commercially prepared EDTA coated tubes (Milian, cat #TOM-14C) in order to extract plasma. The tissues were excised, weighted and rapidly frozen in liquid nitrogen. Later, tumors were cryogenic dry pulverized with the CryoPrep™ system (model CP-02, Covaris). For efficacy experiments in ectopic tumor-bearing mice, animals were randomized into groups of n=6 for a mean tumor size of 100 mm^3 and compound was administered either i.v. q3w or s.c. q2w. When implanted in brain, animals were randomized into groups of n=4 for a mean bioluminescence of 1.0-2.0E+06 [p/s]/[ρW/cm^2] and compound was administered i.v. qw. Tumor response were reported with the measures of tumor volumes or bioluminescence from the treatment start. […]

T1 sequence (Q06187 whole entry C481S): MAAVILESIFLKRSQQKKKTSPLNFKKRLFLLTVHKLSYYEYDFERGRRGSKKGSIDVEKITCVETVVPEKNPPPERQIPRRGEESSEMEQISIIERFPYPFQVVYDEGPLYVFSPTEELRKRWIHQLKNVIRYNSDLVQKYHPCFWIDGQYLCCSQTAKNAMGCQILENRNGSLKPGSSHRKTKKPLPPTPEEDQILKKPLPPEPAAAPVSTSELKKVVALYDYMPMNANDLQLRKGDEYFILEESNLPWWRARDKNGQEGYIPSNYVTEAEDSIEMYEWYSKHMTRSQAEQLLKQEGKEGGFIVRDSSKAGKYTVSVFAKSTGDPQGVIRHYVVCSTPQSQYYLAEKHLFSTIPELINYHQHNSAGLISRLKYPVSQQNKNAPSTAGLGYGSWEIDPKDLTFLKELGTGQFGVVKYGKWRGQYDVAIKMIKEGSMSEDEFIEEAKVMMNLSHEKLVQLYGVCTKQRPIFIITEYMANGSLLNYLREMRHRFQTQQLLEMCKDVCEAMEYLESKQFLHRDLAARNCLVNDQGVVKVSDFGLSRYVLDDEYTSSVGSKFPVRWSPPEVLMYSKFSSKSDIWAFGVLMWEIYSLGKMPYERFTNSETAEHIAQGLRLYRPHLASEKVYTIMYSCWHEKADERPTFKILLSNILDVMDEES

Row | Compound | % Release of degrader after 24 h PBS [1] [%] | Plasma stability (h) PBS [1] [h] | % Release of degrader after 24 h mouse [2] [%] | Plasma stability (h) mouse [2] [h] | % Release of degrader after 24 h rat [3] [%] | Plasma stability (h) rat [3] [h] | Plasma stability (h) dog [4] [h] | % Release of degrader after 24 h dog [4] [%] | Plasma stability (h) cyno [5] [h] | % Release of degrader after 24 h cyno [5] [%] | Duration of BTK degradation in mouse ≥90% (BTK C481S) [days] | C0 ([6]; analyte FAC, FAC i.v. dose 1 umol/kg, read-out: FAC C0-uM dog) [µM] | AUC ([6]; male, Beagle, dog, whole blood, iv, analyte FAC, FAC i.v. dose 1 umol/kg, read-out: FAC AUC-uM.h dog) [µM·h] | C0 ([6]; male, Beagle, whole blood, sc, dog, subcutaneous dosing, FAC s.c. dose 1 umol/kg, read-out: FAC C0) [µM] | Payload C0-uM (unconjugated degrader dosed, first payload cell) ([7]; API i.v., listed as note (20 mg/kg), species taken as mouse) [µM] | AUC ([7]; iv, API i.v., listed as note (20 mg/kg), species taken as mouse, read-out: Payload AUC-uM.h (unconjugated degrader dosed, first payload cell)) [µM·h] | AUC ([7]; sc, mouse, subcutaneous dosing, unconjugated Compound Va at 20 mg/kg, read-out: Payload AUC) [µM·h]
1 | CCCCCCCCCCCN(C(=O)CCCCCCCCCC(=O)O)C(CCC(=O)NCCOCCOCCOCCOCCOCCOCCOCCOCCOCCOCCOCCOCCC(=O)N(CC)CC(=O)OC(C)(C)c1ccc(C(=O)Nc2cc(F)cc(-c3ncnc4[nH]c(-c5ccc(CCN6CCC7(CC6)CCN(C(=O)c6ccc(OC)c(N8CCC(=O)NC8=O)c6)CC7)cc5)cc34)c2C)c(F)c1)C(=O)O (stereo not drawn) [Example A13, 50-Carboxy-2-(4-((3-(6-(4-(2-(9-(3-(2,4-dioxotetrahydropyrimidin-1(2H)-yl)-4-methoxybenzoyl)-3,9-diazaspiro[5.5]undecan-3-yl)ethyl)phenyl)-7H-pyrrolo[2,3-d]pyrimidin-4-yl)-5-fluoro-2-methylphenyl)carbamoyl)-3-fluorophenyl)-6-ethyl-2-methyl-4,7,47,52-tetraoxo-51-undecyl-3,10,13,16,19,22,25,28,31,34,37,40,43-tridecaoxa-6,46,51-triazadohexacontan-62-oic acid] | 1.4 | >48 | 3.7 | >48 | 2 | >48 | >48 | 2.7 | >48 | 2.5 | 7 |  |  |  |  |  | 
2 | CCCCCCCCCCCN(C(=O)CCCCCCCCCC(=O)O)C(CCC(=O)NCCOCCOCCOCCOCCOCCOCCOCCOCCOCCOCCOCCOCCC(=O)NCC(=O)OC(C)(C)c1ccc(C(=O)Nc2cc(F)cc(-c3ncnc4[nH]c(-c5ccc(CCN6CCC7(CC6)CCN(C(=O)c6ccc(OC)c(N8CCC(=O)NC8=O)c6)CC7)cc5)cc34)c2C)c(F)c1)C(=O)O (stereo not drawn) [Example A1, 50-Carboxy-2-(4-((3-(6-(4-(2-(9-(3-(2,4-dioxotetrahydropyrimidin-1(2H)-yl)-4-methoxybenzoyl)-3,9-diazaspiro[5.5]undecan-3-yl)ethyl)phenyl)-7H-pyrrolo[2,3-d]pyrimidin-4-yl)-5-fluoro-2-methylphenyl)carbamoyl)-3-fluorophenyl)-2-methyl-4,7,47,52-tetraoxo-51-undecyl-3,10,13,16,19,22,25,28,31,34,37,40,43-tridecaoxa-6,46,51-triazadohexacontan-62-oic acid] | 1 | >48 | 15.1 | 28 | 17.4 | 34.8 | >48 | 14.6 |  |  |  | 27.2 | 6.8 | 0.28 |  |  | 
3 | CCCCCCCCCCCN(C(=O)CCCCCCCCCC(=O)O)C(CCC(=O)NCCOCCOCCOCCOCCOCCOCCOCCOCCOCCOCCOCCOCCC(=O)N1CCC(CC(=O)OC(C)(C)c2ccc(C(=O)Nc3cc(F)cc(-c4ncnc5[nH]c(-c6ccc(CCN7CCC8(CC7)CCN(C(=O)c7ccc(OC)c(N9CCC(=O)NC9=O)c7)CC8)cc6)cc45)c3C)c(F)c2)CC1)C(=O)O (stereo not drawn) [Example A21, 44-Carboxy-1-(4-(2-((2-(4-((3-(6-(4-(2-(9-(3-(2,4-dioxotetrahydropyrimidin-1(2H)-yl)-4-methoxybenzoyl)-3,9-diazaspiro[5.5]undecan-3-yl)ethyl)phenyl)-7H-pyrrolo[2,3-d]pyrimidin-4-yl)-5-fluoro-2-methylphenyl)carbamoyl)-3-fluorophenyl)propan-2-yl)oxy)-2-oxoethyl)piperidin-1-yl)-1,41,46-trioxo-45-undecyl-4,7,10,13,16,19,22,25,28,31,34,37-dodecaoxa-40,45-diazahexapentacontan-56-oic acid] | 0.2 | >48 | 1.9 | >48 | 0.5 | >48 | >48 | 0.3 | >48 | 0.4 | <4 |  |  |  |  |  | 
4 | COc1ccc(C(=O)N2CCC3(CCN(CCc4ccc(-c5cc6c(-c7cc(F)cc(NC(=O)N8C[C@H](CC(C)C)[C@@H](O)C8)c7C)ncnc6[nH]5)cc4)CC3)CC2)cc1N1CCC(=O)NC1=O [Compound Va, (3R,4S)—N-(3-(6-(4-(2-(9-(3-(2,4-dioxotetrahydropyrimidin-1(2H)-yl)-4-methoxybenzoyl)-3,9-diazaspiro[5.5]undecan-3-yl)ethyl)phenyl)-7H-pyrrolo[2,3-d]pyrimidin-4-yl)-5-fluoro-2-methylphenyl)-3-hydroxy-4-isobutylpyrrolidine-1-carboxamide] |  |  |  |  |  |  |  |  |  |  |  |  |  |  | 16.7 | 15.2 | 15.2
